Experimental data from PMC4355918.

Target: hnRNP C1 (UniProt P07910-2 1-293)
Assay: filter binding

AACUUAAUGUUUUUGCAUUGGUCUUUGAGUUA (structured_RNA) [MALAT1 2,577-U] was tested, and the binding signal was about 4 fold stronger than N1.
